Measured values published in PMC8528861 (2021).
Where no end group is shown, it is not given here. [ ]: non-standard residue; d: D form. pY = N[C@@H](Cc1ccc(OP(=O)(O)O)cc1)C(=O)O

Tests used:
Assay in all cases: SPR
mouse SH2B SH2 domain = mouse SH2B SH2 domain (mouse, UniProt Q91ZM2 527-625)
[1] = biological target: M. musculus LNK SH2 domain (residues 324–446), wild type (mouse, UniProt O09039 324-446)
[2] = biological target: M. musculus LNK SH2 domain R387C (mouse, UniProt O09039 325-438, R387C)
[3] = biological target: M. musculus LNK SH2 domain R387H (mouse, UniProt O09039 325-438, R387H)
Chain of M. musculus LNK SH2 domain R387H (O09039 325-438 R387H): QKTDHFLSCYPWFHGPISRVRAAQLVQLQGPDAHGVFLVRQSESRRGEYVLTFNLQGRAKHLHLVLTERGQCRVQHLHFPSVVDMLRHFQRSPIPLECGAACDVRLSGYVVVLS

Chain of M. musculus LNK SH2 domain (residues 324–446), wild type (O09039 324-446): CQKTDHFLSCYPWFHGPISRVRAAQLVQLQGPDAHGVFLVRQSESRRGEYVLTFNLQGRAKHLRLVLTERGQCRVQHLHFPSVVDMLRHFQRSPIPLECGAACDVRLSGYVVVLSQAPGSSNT
Chain of M. musculus LNK SH2 domain R387C (O09039 325-438 R387C): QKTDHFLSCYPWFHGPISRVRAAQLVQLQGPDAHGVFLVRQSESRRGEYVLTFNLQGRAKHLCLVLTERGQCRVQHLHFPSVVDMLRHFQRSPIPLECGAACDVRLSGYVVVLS

- Kd (mouse SH2B SH2 domain): 0.108 µM
- Kd [1]: 0.027 µM
- Kd [2]: 0.076 µM
- Kd [3]: 0.242 µM
Binder: FTPD[pY]ELLTEND (also: biotin, site not given here) [biotinylated JAK2 pY813 peptide]
